From PMC2695398

Target: Soluble HLA-DR15 (DRA, DRB1*1501) (human)
Experiment: fluorescence polarisation

- fold acceleration of peptide binding by DM at pH 4.7: 15 fold
- fold acceleration of peptide binding by DM at pH 5.6: 8 fold
- fold acceleration of peptide binding by J10-1 at pH 4.7: 15.6 fold
- fold acceleration of peptide binding by J10-1 at pH 5.6: 28 fold
- fold acceleration of peptide binding by J10-1 at pH 7.1: 12.6 fold
- fold acceleration of peptide exchange by 10 uM J10-1: 15.9 fold
- fold acceleration of peptide exchange by 30 uM J10-1: 66.4 fold
- fold faster rate of binding with DR15/CLIP than with DR15/pMBP as input complex: > 10 fold
- half-life of the complex (t1/2) with 100 uM J10: 4.48 h
- half-life of the complex (t1/2) with 100 uM J10-1: 1.93 h
- half-life of the complex (t1/2), no small molecule: 35 h
Substance: Alexa488 labeled derivative of the human myelin basic protein (MBP) 85-99 peptide
